Reference: patent publication US20260207725A1
pKd: −log10 of the molar value.

Molecular target: wild-type Pfs48/45 D3 (6C domain), glycosylated (Plasmodium falciparum) (UniProt Q8I6T1)
Chain of UniProt Q8I6T1 (Q8I6T1 291-428, tags left off): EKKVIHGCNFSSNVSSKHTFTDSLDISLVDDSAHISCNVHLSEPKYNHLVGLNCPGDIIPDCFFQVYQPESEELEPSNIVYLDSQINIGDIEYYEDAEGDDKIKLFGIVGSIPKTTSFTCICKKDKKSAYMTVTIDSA

With “TB31F neutralizing monoclonal antibody (humanized version of mAb 85RF45.1) (from UniProt P0DOY2 1-106)” the pKd was 8.60, the koff was 0.00082 s⁻¹ and the kon was 350000 M⁻¹ s⁻¹.
